Measured values from paper PMC8024396, “Biochemical and structural characterization of the BioZ enzyme engaged in bacterial biotin synthesis pathway” (Nature Communications, 2021).

Columns and labels:
[1] = molecular target: T1, AtBioZ (FabH2, beta-ketoacyl-ACP synthase III) (Agrobacterium fabrum, UniProt Q7CTU0, C115A); assay: ITC (MicroCal PEAQ-ITC, […] °C), N = […]; assay type: binding
T1 construct: gene bioZ; purified BioZ(C115A)

[2] = molecular target: BioZ(C115A) mutant enzyme of Agrobacterium tumefaciens (Agrobacterium tumefaciens), A0AA44; assay: ITC; MicroCal PEAQ-ITC, 25 °C; 50 μM BioZ(C115A) in the cell, 750 μM substrate in the syringe; 20 mM Tris pH 8.0, 150 mM NaCl; one binding-site model; three independent measurements; conditions: remark: other sources report otherwise
[3] = molecular target: the molecule itself; assay: SEC; gel filtration of purified AtBioZ on Superdex 200 Increase 10/300; GF buffer (25 mM Tris-HCl pH 8.0, 100 mM NaCl, 2 mM DTT)

Molecule | Kd [1] | Kd [2] | stoichiometry N [2] | stoichiometry N [3]
CC(C)(COP(=O)(O)OP(=O)(O)OC[C@H]1O[C@@H](n2cnc3c(N)ncnc32)[C@H](O)[C@@H]1OP(=O)(O)O)[C@@H](O)C(=O)NCCC(=O)NCCSC(=O)CCCC(=O)O [glutaryl-CoA] | 2.64 ± 0.23 µM |  |  | 
glutaryl-ACP, P0A6A8 1-78 (natural protein, here or on the partner: glutaryl thioester on the phosphopantetheine (Ppan) of Serine 36) MSTIEERVKKIIGEQLGVKQEEVTNNASFVEDLGADSLDTVELVMALEEEFDTEIPDEEAEKITTVQAAIDYINGHQA |  | 6.17 µM | 0.978 | 
malonyl-ACP, P0A6A8 1-78 (natural protein, here or on the partner: malonyl thioester on the phosphopantetheine (Ppan) of Serine 36) MSTIEERVKKIIGEQLGVKQEEVTNNASFVEDLGADSLDTVELVMALEEEFDTEIPDEEAEKITTVQAAIDYINGHQA |  | 24.1 µM | 0.996 | 
E. coli holo-ACP, P0A6A8 1-78 (natural protein, here or on the partner: phosphopantetheine (Ppan) on Serine 36 (holo-ACP)) MSTIEERVKKIIGEQLGVKQEEVTNNASFVEDLGADSLDTVELVMALEEEFDTEIPDEEAEKITTVQAAIDYINGHQA |  | 330 µM | 1 | 
Agrobacterium tumefaciens BioZ (enzyme, UniProt A0AA44F6N6 1-328, looked up, BioZ (FabH2), atypical beta-ketoacyl-ACP synthase III of Agrobacterium tumefaciens; bioZ gene cloned into pET28a; apparent mass ~36 kDa; 654 protein residues in the two protomers of PDB 6KUE; also called AtBioZ; FabH2; source: E. coli BL21 with pET28::atbioZ, purified (Ni-NTA, TEV cleavage, Superdex 200 Increase SEC); not shown: His6, N-terminal, cleaved) MQTRSSRMAGFGHAVPARCVRNAEIETRLGLEAGWIERRTGIRTRYWAQEGETLSGLAEKAGRMALENARIGAEDIALTLLATSTPDHLLPPSAPLLAHRLGLTQSGAIDLAGACSGFLYALTLADGFVRTHGRAVLVVAANILSRRINPAERATAVLFADAAGAVVLVPCRDAQRGLLSADLVSDGSGYDLIQIAAGGSSQPFSNDTEAEDTLMTMRDGREVFSRAVATMTQTSQRALQRAEMTATDIQRFLPHQANARMFDAVCGNIGIDRQKTVRTVETFGNSSAATIPLSLSVSNAERPITEGETLLLTAAGAGMTGGAVVYRG |  |  |  | 2
